Assay [1] addresses T1, PODXL2, positions 1 to 310 (human, UniProt O00592 23-342).
T1 construct: One of the 14 C-terminal truncations; Expressed on Ba/F3 cells; also called R310
T1 sequence: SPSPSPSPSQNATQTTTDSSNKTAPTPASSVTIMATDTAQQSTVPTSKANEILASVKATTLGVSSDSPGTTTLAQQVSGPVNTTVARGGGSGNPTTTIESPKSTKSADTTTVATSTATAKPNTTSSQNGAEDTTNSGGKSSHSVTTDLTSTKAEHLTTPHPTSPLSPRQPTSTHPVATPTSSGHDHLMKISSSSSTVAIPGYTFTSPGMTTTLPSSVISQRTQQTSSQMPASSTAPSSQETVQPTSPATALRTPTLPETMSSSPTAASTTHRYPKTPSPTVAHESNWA
Description: flow cytometry on Ba/F3 cells expressing the truncated PODXL2. The method, then:
(§1) To each sample of the cell suspension, 50 μl of the hybridoma culture supernatant or 2-μg/ml of the purified antibody (hereinafter, referred to as an “antibody solution”) was added, and the antibody was reacted with the cells. As an isotype control of the antibody solution, a wash buffer containing 2 μg/ml of each of mouse IgG1 (BioLegend, 400412), mouse IgG2a (BioLegend, 400224), and mouse IgG2b (BioLegend, 400324) was used. The hybridoma culture supernatant was reacted with the target cells at room temperature for 30 minutes, followed by centrifugation at 700×g for 2 minutes. Then, a culture supernatant was removed. Further, 100 μl of a wash buffer was added, followed by centrifugation at 700×g for 2 minutes again. A supernatant was removed. Then, the cells were washed.
(§2) Next, to the cell pellets after the washing, 50 μl of Goat anti-mouse IgG, F(ab′) 2-PE (PE=phycoerythrin, Beckman Coulter, IM0855) diluted 200-fold with a wash buffer was added as a secondary antibody for detection, and reacted in the dark at room temperature for 30 minutes. The reaction was followed by centrifugation at 700×g for 2 minutes. A supernatant was removed. Further, 100 μl of a wash buffer was added, followed by centrifugation at 700×g for 2 minutes again. A supernatant was removed. Then, the cells were washed. Thereafter, the cells were suspended in an appropriate amount of a wash buffer. The reactivity between the antibody and the cells was analyzed by a flow cytometer (Beckman Coulter, FC500 MPL).
(§3) Thereafter, by the same method as in Example 1 (4) (the virus packaging and thereafter), Ba/F3 cells containing the PODXL2 gene sequences of various chain lengths were prepared. Further, by the same method as in Example 4, the reactivity between the ACT36-27_{—}5D1 antibody and the Ba/F3 cells expressing the PODXL2 molecules of various chain lengths was analyzed by a flow cytometer (FIG. 10).
On the technique in general: A flow cytometer gives signals particle by particle.

Assay [2] deals with T2, PODXL2, positions 1 to 350 (human, UniProt O00592 23-382).
T2 construct: One of the 14 C-terminal truncations; Expressed on Ba/F3 cells; also called R350
T2 sequence: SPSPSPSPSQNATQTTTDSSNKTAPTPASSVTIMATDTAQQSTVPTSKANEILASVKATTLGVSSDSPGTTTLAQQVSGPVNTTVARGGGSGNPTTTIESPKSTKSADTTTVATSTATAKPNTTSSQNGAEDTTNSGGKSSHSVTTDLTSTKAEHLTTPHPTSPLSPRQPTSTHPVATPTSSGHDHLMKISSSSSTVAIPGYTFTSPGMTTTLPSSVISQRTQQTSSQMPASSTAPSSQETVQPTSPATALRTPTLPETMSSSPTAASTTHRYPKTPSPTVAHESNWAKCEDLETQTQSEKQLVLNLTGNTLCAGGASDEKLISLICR
Described as above. The method, then: as §1, §2, §3

Assay [3] has as its target T3, PODXL2, positions 1 to 330 (human, UniProt O00592 23-362).
T3 construct: One of the 14 C-terminal truncations; Expressed on Ba/F3 cells; also called R330
T3 sequence: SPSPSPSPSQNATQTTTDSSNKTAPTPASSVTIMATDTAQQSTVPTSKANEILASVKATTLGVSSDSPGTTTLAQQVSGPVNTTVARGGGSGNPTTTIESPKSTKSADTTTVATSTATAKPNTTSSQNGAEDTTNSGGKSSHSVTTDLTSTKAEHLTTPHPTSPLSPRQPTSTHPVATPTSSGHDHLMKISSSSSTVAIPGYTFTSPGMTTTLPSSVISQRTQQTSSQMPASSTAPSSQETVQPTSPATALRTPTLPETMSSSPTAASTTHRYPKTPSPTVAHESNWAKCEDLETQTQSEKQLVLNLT
Described as above. The method, then:
as §1, §2, §3

In assay [4] the target is T4, human-derived PODXL2 protein (Homo sapiens podocalyxin-like (PODXL), transcript variant 2, NM-005397.3), full … (human, UniProt O00592 23-558).
T4 construct: 526 amino acids; also called full-length PODXL2 gene
T4 sequence: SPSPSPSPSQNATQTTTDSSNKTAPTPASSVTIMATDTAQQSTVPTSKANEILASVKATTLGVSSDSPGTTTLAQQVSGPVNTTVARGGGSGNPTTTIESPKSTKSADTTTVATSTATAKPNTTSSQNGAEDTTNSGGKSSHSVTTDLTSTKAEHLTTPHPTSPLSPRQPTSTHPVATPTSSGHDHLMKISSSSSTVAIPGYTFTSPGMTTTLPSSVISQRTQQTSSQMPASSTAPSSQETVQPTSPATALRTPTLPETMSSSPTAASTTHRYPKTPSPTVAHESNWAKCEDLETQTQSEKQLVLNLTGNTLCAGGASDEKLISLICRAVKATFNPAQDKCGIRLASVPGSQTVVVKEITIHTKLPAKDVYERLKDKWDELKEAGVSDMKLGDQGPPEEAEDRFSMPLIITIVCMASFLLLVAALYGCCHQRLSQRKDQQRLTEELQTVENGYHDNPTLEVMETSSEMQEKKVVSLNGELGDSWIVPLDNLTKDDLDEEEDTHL
In words: flow cytometry on Ba/F3 cells expressing PODXL2 against negative control Ba/F3 cells (FIG. 1). The method, then:
as §1
as §2, with “Then, the cells were washed. Thereafter, the cells were suspended in an appropriate amount of a wash buffer.” left out

B1: ACT36-27-5D1 antibody (antibody, V domains shown)
VH: EVQLQQSGPELVKPGASVKMSCKASGYTFTSYVMHWVKQKPGQGLEWIGYIHPYNDGIKYNEKFKGKATLTSDKSSSTAYMDLSSLTSEDSAVYYCARSWDWYFDVWAAGTTVTVSS
VL: QIVLTQSPAIMSASPGEKVSMTCSASSSVSYMHWYQQKSGTSPKRWIYDTSKLASGVPARFSGSGSGTSYSLTISSMEAEDAATYYCLQWSSNPPTFGGGTKLE
notes: also called anti-PODXL2 antibody ACT36-27-5D1; anti-ACT36-27-5D1 monoclonal antibody
With B1, the binding result in assay [1] was “no binding”; in assay [2], “no binding”; in assay [3] it was “no binding”; in assay [4], “binds”.

The record behind these values is patent publication US20120107364A1 (ACTGEN, published 2012).
